The source of these data is doi:10.1101/255976.

One data set deals with BRCA1;BARD1 (human;human, UniProt P38398;Q99728 1-1863;1-777, |). The experiment in a line: EMSA.
For another data set, the target named is BRCA1 (human, UniProt P38398 1-1863). The experiment in a line: EMSA.

B1: 50 bp DNA:RNA hybrid X12-3 DNA/X12-4C RNA (DNA:RNA)
DNA: GACGTCATAGACGATTACATTGCTAGGACATGCTGTCTAGAGACTATCGC
RNA: GCGAUAGUCUCUAGACAGCAUGUCCUAGCAAUGUAAUCGUCUAUGACGUC
In the case of B1, the binding result with BRCA1;BARD1 and with BRCA1 was “binds” in each case.
